Source: PMC6586891, “On the molecular and cellular effects of omeprazole to further support its effectiveness as an antigiardial drug” (Scientific Reports, 2019)

Test system: O=CC(O)COP(=O)(O)O
Experiment: Michaelis-Menten kinetics of purified enzyme (Km), coupled alpha-GDH/NADH assay
Format: biochemical, Giardia duodenalis

Substance: Giardia lamblia triosephosphate isomerase (GlTIM Tmut) (Giardia duodenalis; C202A/C222A/C228A)
- Km: 1200 ± 90 µM
- kcat/Km: 1.92e+06 M⁻¹ s⁻¹
